Assay [1] deals with human recombinant HER2 protein (extracellular domain Thr23-Thr652 of human ERBB2 with His tag) (human) (UniProt P04626). Put plainly: SEC-MALS. In general terms: Size exclusion chromatography separates by hydrodynamic size, large species first.
The target is the same in assay [2]. The assay can be described thus: SEC.

On to “trastuzumab stressed at 45°C for 10 days (45C10d) (antibody)”, for which the percent of antibody unbound (mixed 1:1) in assay [1] and in assay [2] was 40% throughout.

Values taken from article PMC7899689.
